Laboratory results reported in patent US20060252692A1, “Inhibitors for use in hemostasis” (ZymoGenetics, Inc., priority 2002, published 2006).

Experiments:
template bleeding time = test system: template bleeding time; design: species or system Macaca fascicularis; settings: cynomolgus monkey, in vivo
Source text: In order to evaluate one aspect of the safety of zsig37 and its effect on template bleeding time, a pre-clinical model in Macaca fascicularis was used. Time to cessation of bleeding from standardized incisions on the animal's forearm, a procedure previously described by Wu, et al., Blood, 2002, 99:3623-3628, was employed to assess the effect of zsig37 on bleeding.
Methods. Five female and twelve male, Macaca fascicularis weighing 2.3 to 4.6 kg were used as test subjects on this project. The animals were immobilized with ketamine hydrochloride (Phoenix Scientific) administered intramuscularly at approximately 10 mg/kg. Each animal was examined, and the animal determined to be acceptable for the study. The right forearm, abdomen, ventral neck and inguinal area were shaved free of hair. The animal was transported to the surgical suite (University of Washington Regional Primate Research Center), positioned inside a heated air circulation system and placed onto isoflurane (Abbott Laboratories) inhalation anesthesia delivered through positive pressure ventilation via an endotracheal tube. […] The time to cessation of bleeding was determined and recorded for each animal. Bleeding times were determined for each animal prior to any treatment, after low molecular weight heparin (Lovenox™, Rhone Polenc, Inc.) treatment and after zsig37 treatment.

TF-1 cells = assay: Adhesion and spreading of TF-1 cells on zsig37-coated plates; format: cell-based; settings: plates coated in PBS vs 0.1 M NaCO3
Procedure: The ability of zsig37 to stimulate adhesion and spreading of TF-1 cells was assayed as follows. A series of dilutions were prepared from C-terminal Glu-Glu-tagged zsig37, from 10 to 0.0625 ’g/ml, in either PBS or ELISA coating buffer (0.1 M NaCO3) and each was plated into a 96 well plate (Costar; Pleasanton, Calif.) at 100 μl/well. The plates were incubated at 37° C., 5% CO2 for 2 hours. The plates were then washed 3× with RPMI/10% FBS (RPMI 1640, 2 mM L-glutamine, 110 μg/ml sodium pyruvate, PSN and 10% heat inactivated fetal bovine serum) and allowed to block for 15 minutes.
TF-1 cells (derived from acute myeloid leukemia cells) were resuspended in RPMI/10% FBS and plated into at 10,000 cells/well into the zsig37CEE-coated 96 well plates at a final volume of 120 μl/well. The plate was incubated at 37° C. under 5% CO2 for 2 hours. The plates were then washed 3× with PBS and 200 μl/well growth media (RPMI/10% FBS, 5 ng/ml GM-CSF) was added. The cells were microscopically inspected before and after the wash.
A dye incorporation assay was also used to measure the number of adherent cells based on a colorimetric change and an increase in fluorescent signal. ALAMAR BLUE (AccuMed; Chicago, Ill.) was added to the 96 well plates and the cells were incubated at 37° C. under 5% CO2 overnight. […]

Row | Molecule | template bleeding time vs control (1.0 mg/kg BSA) (template bleeding time) | adherent cells (ALAMAR BLUE dye incorporation) (TF-1 cells)
1 | ReoPro: comparator in template bleeding time study, 0.25 mg/kg [reference compound] | unable to stop their bleeding | –
2 | zsig37CEE: zsig37 polypeptide having a C-terminal Glu-Glu tag (protein) LVLSRVPHVQGEQQEWEGTEELPSPPDHAERAEEQHEKYRPSQDQGLPASRCLRCCDPGTSMYPATAVPQINITILKGEKGDRGDRGLQGKYGKTGSAGARGHTGPKGQKGSMGAPGERCKSHYAAFSVGRKKPMHSNHYYQTVIFDTEFVNLYDHFNMFTGKFYCYVPGLYFFSLNVHTWNQKETYLHIMKNEEEVVILFAQVGDRSIMQSQSLMLELREQDQVWVRLYKGERENAIFSEELDTYITFSGYLVKHATEPEEYMPME | – | more adherent cells on the C-terminal Glu-Glu tagged (zsig37CEE)-PBS coated plates than on the zsig37CEE-0.1 M NaCO3 coated plates
